Results: US20050182242A1, “Global analysis of protein activities using proteome chips” (priority 2001, published 2005)

How the values were obtained:
Details in all cases: liposome binding signal on yeast proteome chip, Cy3-streptavidin detection
[1] = tested on: phosphatidylcholine (PC) liposomes; assay: Yeast proteome chip probed with PC liposomes
How it was run: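 Binding detected by fluorescent streptavidin (Cy3 or Cy5, >30 min in the dark at RT) recognizing biotin-DHPE (1% w/w) in PC liposomes, which carried 5% (w/w) of the named phosphoinositide unless PC-only. Liposomes, made by sonication in TBS, were applied to blocked chips for 1 h at RT, then washed in PBS.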

PI(3,4,5)P3 liposomes = assay: Yeast proteome chip probed with PI(3,4,5)P3 liposomes
PI(3,4)P2 liposomes = assay: Yeast proteome chip probed with PI(3,4)P2 liposomes
PI(3)P liposomes = assay: Yeast proteome chip probed with PI(3)P liposomes
PI(4,5)P2 liposomes = assay: Yeast proteome chip probed with PI(4,5)P2 liposomes
PI(4)P liposomes = assay: Yeast proteome chip probed with PI(4)P liposomes

Molecule	PC [1]	PI(3, 4, 5)P3 (PI(3,4,5)P3 liposomes)	PI(3, 4)P2 (PI(3,4)P2 liposomes)	PI(3)P (PI(3)P liposomes)	PI(4, 5)P2 (PI(4,5)P2 liposomes)	PI(4)P (PI(4)P liposomes)
MET8: yeast GST-HisX6 fusion protein on proteome chip (protein, left off: a dimerising Fc or GST, yeast GST-HisX6 fusion protein on proteome chip) MVKSLQLAHQLKDKKILLIGGGEVGLTRLYKLIPTGCKLTLVSPDLHKSIIPKFGKFIQNEDQPDYREDAKRFINPNWDPTKNEIYEYIRSDFKDEYLDLEDENDAWYIIMTCIPDHPESARIYHLCKERFGKQQLVNVADKPDLCDFYFGANLEIGDRLQILISTNGLSPRFGALVRDEIRNLFTQMGDLALEDAVVKLGELRRGIRLLAPDDKDVKYRMDWARRCTDLFGIQHCHNIDVKRLLDLFKVMFQEQNCSLQFPPRERLLSEYCSS	188.12	25.42	95.44	117.00	244.09	175.94
ROT1: yeast GST-HisX6 fusion protein on proteome chip (protein, UniProt Q03691 25-256, looked up, GST-His6 tag, yeast GST-HisX6 fusion protein on proteome chip) Protein ROT1: EDESNSIYGTWSSKSNQVFTGPGFYDPVDELLIEPSLPGLSYSFTEDGWYEEATYQVSGNPRNPTCPMASLIYQHGTYNISENGTLVLNPIEVDGRQLFSDPCNDDGVSTYSRYNQTETFKEYAVGIDPYHGIYTLQLYQYDGTPMQPLYLAYRPPMMLPTETLNPTSSATSTDDPSSNKKRSLRSLVRRSLENRHKTNAIKRQNTSFLTSNAIWYISAGMLGVGSLLFLAF	121.50	99.11	137.98	33.25	63.58	52.04
KCC4: yeast GST-HisX6 fusion protein on proteome chip (protein, UniProt P25389 1-1037, looked up, GST-HisX6 tag, yeast GST-HisX6 fusion protein on proteome chip) Probable …: MTVANTETHSAAKPSSTIGPWKLGETLGFGSTGKVQLAQHERTGHRTAVKVISKSIFNNNGNHSNDDSVLPYNIEREIVIMKLLSHPNVLSLYDVWETNNNLYLILEYAEKGELFNLLVDHGPLPEREAINCFRQIIIGISYCHALGIVHRDLKPENLLLDSFYNIKIADFGMAALQTDADLLETSCGSPHYAAPEIVSGLPYEGFASDVWSCGVILFALLTGRLPFDEENGNVRDLLLKVQKGQFEMPNDTEISRDAQDLIGKILVVDPRQRIKIRDILSHPLLKKYQTIKDSKSIKDLPRENTYLYPLADSNNHTSASIDDSILQNLVVLWHGRHADDIVSKLKENGTNKEKILYALLYRFKLDSVRGSNKKNRNKIKKTKKNKRSSTLSSSSSLLLNNRSIQSTPRRRTSKRHSREFSSSRKRSSFLLSSNPTDSSPIPLRSSKRITHINVASANTQATPSGVPNPHKRNSKKRSSKRLSYMPNTKRSSLTSKSLSNFTNLIDDDDWEYIEKDAKRTSSNFATLIDEIFEPEKFELAKREKAELQRKVQEAKRQSVNAQKINEDEFGSEVSDGMKELKKINDKVSSPLINYEFSQQELLQDIDTLLTNRYQLSSYTRPISRLDPGLTPVTETLPNNLKEKTALLQDTEKKIIETIRRSKFLGSLLNVRGGLSPGKSELAPIEESPIVSTTPLIYNDRMEPRRISDVEVPHFTRKSKHFTTANNRRSVLSLYAKDSIKDLNEFLIKEDPDLPPQGSTDNESRSEDPEIAESITDSRNIQYDEDDSKDGDNVNNDNILSDFPQGVGISQEYDMKDKNPNQSPISKSAEPTLVVKLPSLSSFQGKNASGLGLYQREPSKVTLPSLTSNNSSVGENIEDGAEKGTESEKIAASLSDDDLKEDNDKKDNDTVNAPTTVKKPPNSVLLKKFSKGKILELEIHAKIPEKRLYEGLHKLLEGWKQYGLKNLVFNITNMIITGKLVNDSILFLRSTLFEIMVLPNGDGRSLIKFNKKTGSTKTLTKLATEIQIILQKEGVLDK	123.26	65.47	234.84	33.50	67.06	84.92
FUR1: yeast GST-HisX6 fusion protein on proteome chip (protein, UniProt P18562 1-216, looked up, GST-His6 fusion tag, yeast GST-HisX6 fusion protein on proteome chip) Uracil …: MSSEPFKNVYLLPQTNQLLGLYTIIRNKNTTRPDFIFYSDRIIRLLVEEGLNHLPVQKQIVETDTNENFEGVSFMGKICGVSIVRAGESMEQGLRDCCRSVRIGKILIQRDEETALPKLFYEKLPEDISERYVFLLDPMLATGGSAIMATEVLIKRGVKPERIYFLNLICSKEGIEKYHAAFPEVRIVTGALDRGLDENKYLVPGLGDFGDRYYCV	95.67	72.22	210.19	112.25	111.70	148.94
FBP26: yeast GST-HisX6 fusion protein on proteome chip (protein, UniProt P32604 1-452, looked up, GST-His6 tag, yeast GST-HisX6 fusion protein on proteome chip) Fructose-2,6-bisphosphatase: MGYSTISNDNDIKVCVIMVGLPARGKSFISQKIIRYLSWLSIKAKCFNVGNYRRDVSGNVPMDAEFFNFENTDNFKLRELAAQNAIKDIVNFFTKEDGSVAVFDATNSTRKRRKWLKDICEKNNIQPMFLESWSNDHELIINNAKDIGSTSPDYENSEPHVAEADFLERIRQYERFYEPLDPQKDKDMTFIKLVNIIEEVVINKIRTYLESRIVFYVMNIRPKPKYIWLSRHGESIYNVEKKIGGDSSLSERGFQYAKKLEQLVKESAGEINLTVWTSTLKRTQQTANYLPYKKLQWKALDELDAGVCDGMTYEEIEKEYPEDFKARDNDKYEYRYRGGESYRDVVIRLEPVIMELERQENVLIITHQAVLRCIYAYFMNVPQEESPWMSIPLHTLIKLEPRAYGTKVTKIKANIPAVSTYKEKGTSQVGELSQSSTKLHQLLNDSPLEDKF	107.41	25.31	48.51	5.75	47.90	62.06
ARP10: yeast GST-HisX6 fusion protein on proteome chip (protein, UniProt Q04549 1-284, looked up, GST-HisX6 tag, yeast GST-HisX6 fusion protein on proteome chip) Actin-like protein ARP10: MSNTIVIVYLGANRIEIGRSADACPQEIIAWKTGSINEKNREELKKIFEHYFQICNILGNREVQVLILEDIFISVVEKRIICSILFKEFDCAHVSFVPRAIVHCLSCNTRNAIVIDIGTNYTTCVPIFDLRPLQQFIKYSKRGKRQVESRIPLPGSLYMPIFFDEEYNSKNCEVDETPVINLVKNIVESLPIDLRRPLRENIIIVNIEEAYETVIRNLFKLKMDTSKIQFPKNYWQAGSACAKILLHYKGSNIVGIERDEFYNNPHIAPDWFDYYFRTGVKRLQ	119.74	30.15	29.20	51.00	32.01	98.64
AKL1: yeast GST-HisX6 fusion protein on proteome chip (protein, UniProt P38080 2-1108, looked up, GST-His6 tag, yeast GST-HisX6 fusion protein on proteome chip) Serine/threonine-protein …: SITNGTSRSVSAMGHPAVERYTPGHIVCVGTHKVEVVNYLAEGGFAQIYVVKFLEYLNEFDNTASVPLKIGDVACLKRVLVQDENGLNEMRNEVEVMKKLKGAPNIVQYFDSNASRRRDGVQGFEVLLLMELCPNKSLLDYMNQRLSTKLTEAEIVKIMYDVALSISQMHYLPVSLIHRDIKIENVLVDAKNNFKLADFGSTSTCFPIVTTHQDIALLTQNIYVHTTPQYRSPEMIDLYRCLPINEKSDIWALGVFLYKLLFFTTPFEMTGQFAILHSKYEFPVNKYSSKLINLIIIMLAENPNLRPNIYQVLYHLCEILNVEVPIEDKYAEGAYNFSKYTQFQNKLQNVQLQMYQLQQKKIMQNNKLSDSEENLLNDMFLSSFEISSKLPMNASDGHAAVSRIPSQNVGQELEEEKESQSDQRKSTLSEDKSSRTTSNANSSGTANNPQEINTIQSPGIEDKSIFENKTPGELYYPSVSELDTYLDKELVKQSSDPTISEQSPRLNTQSLPQRQKSTSSYSSGGRSMKSTSYGAATIGSDEALANEKTAGINKMKQHKSNNPFPKMNVAYHSTNELSNDASNFFLEEQQQGQRYQQAQNQTGTQGNTFPDESQYQSRVEQQQQQQDQPKGPANYSQRNFYTGRDRSNKPMQLGGTIAGDSGNRRVNFQNISQNYATNSQSGYLPSQNSPAIPMVRPVISMNQQQAQQIQAQQLQAQQMQAKQQMQAKQQMQVQQQLQVQQQMQIQNANNNGTYVSDRTNHTTEDMRNAQGGEPPILAGNSANEPMHSSSKNEALLIELSPLKEDAGKQSFQDTNEPQTGGIEDAGGSGTIKGSNNNRNGVLNLSLNEMDLSRDDTGAAVSSFSSSSSSASIQQAKLSGRKGSSKRNNYSTDELGDSMVSSESIDIDLDDARRGKTAERRPLHNERGHKDQARSSDASKSNQFKSKDFSSVSTRQPRQSLDLNFQEVNLSSPTLTQEHRNKNDSPAPNSHHSYRVSPHASTAITENKRHSTGHELSTRSNGKHETHRTGSKQRHDLERYRHSKDKDSNSSITISTSTPSEMRKSFARARQSLDLERVRREAMASSASSSGGSNGKRRSFFSVFRSEK	207.20	93.38	132.49	19.50	57.48	189.44
MPS1: yeast GST-HisX6 fusion protein on proteome chip (protein, UniProt P54199 1-764, looked up, GST-HisX6 tag, yeast GST-HisX6 fusion protein on proteome chip) Serine/threonine-protein …: MSTNSFHDYVDLKSRTNTRQFSDDEEFTTPPKLSNFGSALLSHTEKTSASEILSSHNNDKIANRLEEMDRSSSRSHPPPSMGNLTSGHTSTSSHSTLFGRYLRNNHQTSMTTMNTSDIEINVGNSLDKSFERIRNLRQNMKEDITAKYAERRSKRFLISNRTTKLGPAKRAMTLTNIFDEDVPNSPNQPINARETVELPLEDSHQTNFKETKRNTDYDSIDFGDLNPIQYIKKHNLPTSDLPLISQIYFDKQREENRQAALRKHSSRELLYKSRSSSSSLSSNNLLANKDNSITSNNGSQPRRKVSTGSSSSKSSIEIRRALKENIDTSNNSNFNSPIHKIYKGISRNKDSDSEKREVLRNISINANHADNLLQQENKRLKRSLDDAITNENINSKNLEVFYHRPAPKPPVTKKVEIVEPAKSASLSNNRNIITVNDSQYEKIELLGRGGSSRVYKVKGSGNRVYALKRVSFDAFDDSSIDGFKGEIELLEKLKDQKRVIQLLDYEMGDGLLYLIMECGDHDLSQILNQRSGMPLDFNFVRFYTKEMLLCIKVVHDAGIVHSDLKPANFVLVKGILKIIDFGIANAVPEHTVNIYRETQIGTPNYMAPEALVAMNYTQNSENQHEGNKWKVGRPSDMWSCGCIIYQMIYGKPPYGSFQGQNRLLAIMNPDVKIPFPEHTSNNEKIPKSAIELMKACLYRNPDKRWTVDKVLSSTFLQPFMISGSIMEDLIRNAVRYGSEKPHISQDDLNDVVDTVLRKFADYKI	4374.59	1864.12	4216.40	310.00	1084.79	6148.60
